# Data: patent US20220089730A1 (published 2022)
# Legend:
# [1] = target: T1, PSMA (Prostate-Specific Membrane Antigen), glutamate carboxypeptidase 2 (UniProt Q04609 1-750); assay: FACS; table prints γ2 EH2, curve legend prints γ1 EH1
# [2] = target: T1, PSMA (Prostate-Specific Membrane …); assay: FACS; LNCaP-AR cells
binder,measurement,setting,value
IAB2M γ2 EH2 (other) DIVMTQSPSSLSASVGDRVTITCKASQDVGTAVDWYQQKPGKAPKLLIYWASTRHTGVPDRFTGSGSGTDFTLTISSLQPEDFADYFCQQYNSYPLTFGGGTKLEIKGSTSGGGSGGGSGGGGSSEVQLVQSGAEVKKPGASVKISCKTSGYTFTEYTIHWVKQASGKGLEWIGNINPNNGGTTYNQKFEDRATLTVDKSTSTAYMELSSLRSEDTAVYYCAAGWNFDYWGQGTTVTVSSERKSCVECPPCPGGGSSGGGSGGQPREPQVYTLPPSREEMTKNQVSLTCLVKGFYPSDIAVEWESNGQPENNYKTTPPMLDSDGSFFLYSKLTVDKSRWQQGNVFSCSVMHEALHNHYTQKSLSLSPGK,EC50,[1],176 pM
same,EC50,[2],50 pM
